The results in this text go back to article PMC9884143 (The Journal of Biological Chemistry, 2023).

For test [1], the target named is T1, SARS-CoV-2 Spike receptor-binding domain (RBD), original strain (SARS-CoV-2, original strain, UniProt P0DTC2).
In test [2] the target is T1, SARS-CoV-2 Spike receptor-binding …. Kind of test: SPR. Particulars: both partners purified.

Where a chain is given by its changes, count along the chain named.

B1: CoV2-YD-35 (VHH)
VHH: DVQLVESGGGLVQAGDSLRLSCTASGRTFTTNAMGWFRQAPGKEREFVAAISWSYGTTYYSDPVEGRFTISRSNAKNTVYLQMNSLKPDDTAVYYCTLRSRFNAAAWTTEAAFDYWGQGTQVTVS
What is called Kd is the equilibrium constant for the complex coming apart. High values mean weaker binding, low ones tighter binding. B1 had an equilibrium dissociation constant (Kd) in test [1] of 0.14 nM.

B2: CoV2-YD-38 (VHH)
VHH: B1 VHH with T23A, S54N, Y55S, E65K, S73D, D89G, A105Y, A111N
As for B2, the affinity in test [1], expressed as Kd, was 0.561 nM.

B3: CoV2-YD-37 (VHH)
VHH: B1 VHH with S54N, G56D
Consider B3, for which the dissociation constant (Kd) in test [1] turned out to be 0.411 nM. This Kd and that of the molecule before are within 1.5-fold of each other.

B4: CoV2-YD-36 (VHH)
VHH: B1 VHH with D1Q, S52T
In test [1], B4 registered a Kd of 0.154 nM. This Kd is about 2.7-fold lower than that of the molecule before.

B5: CoV2-YD-5 (VHH)
VHH: QVQLVESGGGLVQAGGSLRLSCVASGTTISTYNLLWFRQAPGQQREWVASISSGGDTSYAGSVKGRFTISRDNTENTMYLQMNSLKPEDTAVYYCHGANAAHGMDYWGKGTQVTVS
B5 yielded a dissociation constant Kd in test [1] of 0.114 nM.

B6: CoV2-YD-13 (VHH)
VHH: QVQLVESGGGLVQAGGSLRLSCAASGFTFDDYAIGWFRQAPGKEREGVSCISSSGGFTNYADSVKGRFTISSDNAKNTVYLQMNSLKPEDTAVYYCAVVVNGYGLDEWAYDYWGQGTQVTVS
In test [1], B6 registered a Kd of 2.43 nM.

B7: CoV2-YD-11 (VHH)
VHH: QVQLVESGGGLVQAGGSLRLSCVVSGTTFSRYDMGWYRQAPGKARETVATISRSGTTNYAYFVKGRFTITRDNAKNTVYLQMNSLKPEDTAVYYCYIFGLDYWGQGTQVTVS
B7: binding in test [1] was put at a Kd of 0.179 nM.

B8: CoV2-YD-12 (VHH)
VHH: QVQLVESGGGLVQAGGSLRLSCAASGSTFSRLNILWWRQAAGKPREWVATSTDGGTRNYAAAVKGRFTISRDNAKNTVYLQMNSLKPEDTAVYYCYTPDYWGQGTQVTVS
As to B8, in test [1], the dissociation constant Kd was 0.145 nM.

B9: Rescue-1 (VHH)
VHH: DVQLVESGGGLVQAGDSLRLSCTASGRTFTTNAMGWFRQAPGKEREFVAAITWSYGTTYYSDPVEGRFTISRDNAKNTVYLQMNSLKPEDTAVYYCFYERLAWDTSTYWGQGTQVTVS
As for B9, the Kd in test [1] came to 50.9 nM.

B10: Rescue-2 (VHH)
VHH: B9 VHH with T52S, S54N, G56D
In the case of B10, binding in test [1] was characterised by a dissociation constant (Kd) of 26.8 nM.

B11: Rescue-3 (VHH)
VHH: B9 VHH with T52S, S54N, Y55S, E65K
Regarding B11, binding in test [1] was characterised by a dissociation constant (Kd) of 24.9 nM.

B12: CoV2-YD-10 (VHH)
VHH: QVQLVESGGDLVQPGGSLRLSCAASGFTFSTYDMGWFRQGPGKEREFVAQIAPNGITTYYADSVKGRFTISRDNAKRMVFLQMNSLKPEDTAVYFCAVDLAPWGSLKLRTNPARGQGTQVTVS
Consider B12, for which, in test [2], the binding result is reported as “binds”.

B13: CoV2-YD-14 (VHH)
VHH: QVQLVESGGGLVQAGGSLRLSCSASGNTFSTYSLSWYRQAPGKQREFVAAISSGGSTSYANSVKGRFSISRDNAKKTMYLQMNSLKPEDTAVYYCYVVTTLMDYWGQGTQVTVS
With B13, the affinity in test [1], expressed as Kd, was 0.152 nM.
